Values of other authors in publication PMC6886688.

Tested on: Tyr134

For “Cellular retinoic acid binding protein 2 (CRABP2) (Homo sapiens (inferred; not stated in the article))”, the pKa is listed as about 7.6.
